This note sets out measurements from patent publication USRE50282 (KAGOSHIMA UNIVERSITY, dated 2025).

Bridges are numbered along the chain shown (N, C = ends). Primed or numbered codes have the meaning given here. Where no end group is shown, it is not given here. The star is where a group is joined. DSS = disuccinimidyl suberate, reactive NHS group, O=C(CCCCCCC(=O)*)ON1C(=O)CCC1=O; DSG = disuccinimidyl glutarate, reactive NHS group, O=C(CCCC(=O)*)ON1C(=O)CCC1=O; Biotin = O=C1N[C@H]2[C@H](CS[C@H]2CCCCC(=O)*)N1; PEG4′ = not defined here

The target in assay [1] is T1, human serum albumin (human, UniProt P02768 25-609).
T1 construct: also called HSA; HAS
The assay can be described thus: covalent labeling reaction, SDS-PAGE and Western blotting with SA-conjugated HRP. In general terms: Immunoblotting shows a protein as a band on a membrane.

The target in assay [2] is T2, human IgG Fc (human, UniProt P01857-1 108-330 = IgG part).
T2 construct: domain: Fc; also called human IgG1 Fc
Description: X-ray crystallography of the Fc/IgG-binding peptide conjugate.

Assay [3] deals with T3, bovine serum albumin (bovine, UniProt P02769 25-607).
T3 construct: also called BSA
T3 sequence (P02769 25-607 limits assumed): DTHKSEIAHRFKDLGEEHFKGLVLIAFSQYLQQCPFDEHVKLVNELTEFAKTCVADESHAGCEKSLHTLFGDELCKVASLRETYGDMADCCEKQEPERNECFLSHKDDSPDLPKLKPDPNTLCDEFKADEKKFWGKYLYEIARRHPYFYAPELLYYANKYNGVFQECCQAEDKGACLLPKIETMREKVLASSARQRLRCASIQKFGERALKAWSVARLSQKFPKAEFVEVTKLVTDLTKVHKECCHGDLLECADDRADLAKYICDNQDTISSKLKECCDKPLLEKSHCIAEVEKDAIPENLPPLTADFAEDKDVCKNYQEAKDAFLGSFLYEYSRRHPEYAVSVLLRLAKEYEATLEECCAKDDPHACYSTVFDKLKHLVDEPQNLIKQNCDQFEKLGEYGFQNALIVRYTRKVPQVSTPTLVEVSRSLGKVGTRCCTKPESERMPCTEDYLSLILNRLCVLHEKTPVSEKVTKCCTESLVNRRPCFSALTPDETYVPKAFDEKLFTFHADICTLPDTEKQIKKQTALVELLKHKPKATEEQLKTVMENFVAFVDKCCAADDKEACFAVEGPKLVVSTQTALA
Description: ELISA, BSA used as blocking agent, biotinylated peptide detected with SA-HRP.

{Biotin-PEG4′}-GDDCAYHK(DSG)GELVWCTFH-NH2 (disulfide 4-14, also called labeled reagent peptide) [N-terminally biotin-PEG4-added IgG-binding peptide (Type I(R8K)) modified with DSG]: the binding result in assay [1] is listed as “no binding”.

B1: cyclic homocysteine peptide G(HC)DCAYHRGELVWCT(HC)H-NH2 (peptide)
peptide: GXDCAYHRGELVWCTXH-NH2
modifications: disulfide 4-14, 2-16; not fully specified (residues 2, 16); printed as G(HC)DCAYHRGELVWCT(HC)H-NH2
Take B1: the binding result in assay [2] is reported as “binds”.

Regarding {Biotin-PEG4′}-GDDCAYHK(DSS)GELVWCTFH-NH2 (disulfide 4-14, also called DSS R8K) [N-terminally biotin-PEG4-added IgG-binding peptide (Type I(R8K)) modified with DSS], the binding result in assay [3] was “no binding (tested: molar ratio up to 10)”; in assay [1] it was “no binding”.
